± gives the standard deviation of the averaged measurements.
Experiment: total protein half-life in vivo (active degradation + dilution); higher = more stable protein
[1] = E. coli NCM3722 delta-clpP delta-lon delta-hslV, growth: N-lim chemostat, doubling time 6 h
[2] = E. coli NCM3722 delta-clpP, growth: N-lim chemostat, doubling time 6 h
[3] = E. coli NCM3722 delta-hslV, growth: N-lim chemostat, doubling time 6 h
[4] = E. coli NCM3722 delta-lon, growth: N-lim chemostat, doubling time 6 h
[5] = E. coli NCM3722 delta-smpB, growth: N-lim chemostat, doubling time 6 h
[6] = wild type E. coli NCM3722, growth: C-lim chemostat, doubling time 3 h
[7] = wild type E. coli NCM3722, growth: C-lim chemostat, doubling time 6 h
[8] = wild type E. coli NCM3722, growth: C-lim chemostat, doubling time 12 h
[9] = wild type E. coli NCM3722, growth: N-lim chemostat, doubling time 6 h
[10] = wild type E. coli NCM3722, growth: N-lim chemostat, doubling time 12 h
[11] = wild type E. coli NCM3722, growth: P-lim chemostat, doubling time 6 h
[12] = wild type E. coli NCM3722, growth: P-lim chemostat, doubling time 12 h

Sequence	total protein half-life in vivo [1] [h]	total protein half-life in vivo [2] [h]	total protein half-life in vivo [3] [h]	total protein half-life in vivo [4] [h]	total protein half-life in vivo [5] [h]	total protein half-life in vivo [6] [h]	total protein half-life in vivo [7] [h]	total protein half-life in vivo [8] [h]	total protein half-life in vivo [9] [h]	total protein half-life in vivo [10] [h]	total protein half-life in vivo [11] [h]	total protein half-life in vivo [12] [h]
MQDLISQVEDLAGIEIDHTTSMVMIFGIIFLTAVVVHIILHWVVLRTFEKRAIASSRLWLQIITQNKLFHRLAFTLQGIIVNIQAVFWLQKGTEAADILTTCAQLWIMMYALLSVFSLLDVILNLAQKFPAASQLPLKGIFQGIKLIGAILVGILMISLLIGQSPAILISGLGAMAAVLMLVFKDPILGLVAGIQLSANDMLKLGDWLEMPKYGADGAVIDIGLTTVKVRNWDNTITTIPTWSLVSDSFKNWSGMSASGGRRIKRSISIDVTSIRFLDEDEMQRLNKAHLLKPYLTSRHQEINEWNRQQGSTESVLNLRRMTNIGTFRAYLNEYLRNHPRIRKDMTLMVRQLAPGDNGLPLEIYAFTNTVVWLEYESIQADIFDHIFAIVEEFGLRLHQSPTGNDIRSLAGAFKQ [P0AAT4]	6.49 ± 0.43	6.36 ± 0.28	6.274 ± 0.01	6.69 ± 1.4	6.33 ± 0.022	3.52 ± 0.6	6.12 ± 0.22	13.9 ± 0.19	6.22 ± 0.46	12 ± 1.6	5.84 ± 0.59	13.7 ± 1.2
MAAVNLRHIEIFHAVMTAGSLTEAAHLLHTSQPTVSRELARFEKVIGLKLFERVRGRLHPTVQGLRLFEEVQRSWYGLDRIVSAAESLREFRQGELSIACLPVFSQSFLPQLLQPFLARYPDVSLNIVPQESPLLEEWLSAQRHDLGLTETLHTPAGTERTELLSLDEVCVLPPGHPLAVKKVLTPDDFQGENYISLSRTDSYRQLLDQLFTEHQVKRRMIVETHSAASVCAMVRAGVGISVVNPLTALDYAASGLVVRRFSIAVPFTVSLIRPLHRPSSALVQAFSGHLQAGLPKLVTSLDAILSSATTA	7.04 ± 0.23	4.89	–	–	5.18 ± 2.1	3.2 ± 0.26	6.28	11.805 ± 0.0096	5.91 ± 0.071	> 16	–	13.1 ± 0.34
MSKKLIALCACPMGLAHTFMAAQALEEAAVEAGYEVKIETQGADGIQNRLTAQDIAEATIIIHSVAVTPEDNERFESRDVYEITLQDAIKNAAGIIKEIEEMIASEQQ	4.54 ± 0.89	–	–	–	–	2.27 ± 0.1	4.02 ± 0.38	5.83 ± 0.31	–	–	–	–
MRWQGRRESDNVEDRRNSSGGPSMGGPGFRLPSGKGGLILLIVVLVAGYYGVDLTGLMTGQPVSQQQSTRSISPNEDEAAKFTSVILATTEDTWGQQFEKMGKTYQQPKLVMYRGMTRTGCGAGQSIMGPFYCPADGTVYIDLSFYDDMKDKLGADGDFAQGYVIAHEVGHHVQKLLGIEPKVRQLQQNATQAEVNRLSVRMELQADCFAGVWGHSMQQQGVLETGDLEEALNAAQAIGDDRLQQQSQGRVVPDSFTHGTSQQRYSWFKRGFDSGDPAQCNTFGKSI	5.3 ± 0.69	6.06 ± 0.32	5.36 ± 0.17	–	4.87 ± 0.34	2.861 ± 0.027	5.19 ± 0.22	7.6 ± 3	5.54 ± 0.5	11.2 ± 2	3.37 ± 0.57	8.39 ± 3.7
MKNIRNFSIIAHIDHGKSTLSDRIIQICGGLSDREMEAQVLDSMDLERERGITIKAQSVTLDYKASDGETYQLNFIDTPGHVDFSYEVSRSLAACEGALLVVDAGQGVEAQTLANCYTAMEMDLEVVPVLNKIDLPAADPERVAEEIEDIVGIDATDAVRCSAKTGVGVQDVLERLVRDIPPPEGDPEGPLQALIIDSWFDNYLGVVSLIRIKNGTLRKGDKVKVMSTGQTYNADRLGIFTPKQVDRTELKCGEVGWLVCAIKDIHGAPVGDTLTLARNPAEKALPGFKKVKPQVYAGLFPVSSDDYEAFRDALGKLSLNDASLFYEPESSSALGFGFRCGFLGLLHMEIIQERLEREYDLDLITTAPTVVYEVETTSREVIYVDSPSKLPAVNNIYELREPIAECHMLLPQAYLGNVITLCVEKRGVQTNMVYHGNQVALTYEIPMAEVVLDFFDRLKSTSRGYASLDYNFKRFQASDMVRVDVLINGERVDALALITHRDNSQNRGRELVEKMKDLIPRQQFDIAIQAAIGTHIIARSTVKQLRKNVLAKCYGGDISRKKKLLQKQKEGKKRMKQIGNVELPQEAFLAILHVGKDNK	5.44 ± 0.33	5.46 ± 0.92	5.24 ± 0.14	5.28 ± 0.43	4.79 ± 0.27	3.03 ± 0.18	5.49 ± 0.072	10.2 ± 0.72	4.754 ± 0.043	8.74 ± 0.49	5.851 ± 0.057	12.16 ± 0.1
MTQPMPGKPAEDAENELDIRGLFRTLWAGKLWIIGMGLAFALIALAYTFFARQEWSSTAITDRPTVNMLGGYYSQQQFLRNLDVRSNMASADQPSVMDEAYKEFVMQLASWDTRREFWLQTDYYKQRMVGNSKADAALLDEMINNIQFIPGDFTRAVNDSVKLIAETAPDANNLLRQYVAFASQRAASHLNDELKGAWAARTIQMKAQVKRQEEVAKAIYDRRMNSIEQALKIAEQHNISRSATDVPAEELPDSEMFLLGRPMLQARLENLQAVGPAFDLDYDQNRAMLNTLNVGPTLDPRFQTYRYLRTPEEPVKRDSPRRAFLMIMWGIVGGLIGAGVALTRRCSK [P0AG00]	6.85 ± 0.38	6.17 ± 0.56	6.71 ± 1.2	6.55 ± 0.092	6.22 ± 0.16	3.48 ± 0.46	6.38 ± 0.37	–	6.6 ± 1.2	12.9 ± 1.9	6.31 ± 0.24	13.3 ± 0.56
MENIMNNPVIGVVMCRNRLKGHATQTLQEKYLNAIIHAGGLPIALPHALAEPSLLEQLLPKLDGIYLPGSPSNVQPHLYGENGDEPDADPGRDLLSMAIINAALERRIPIFAICRGLQELVVATGGSLHRKLCEQPELLEHREDPELPVEQQYAPSHEVQVEEGGLLSALLPECSNFWVNSLHGQGAKVVSPRLRVEARSPDGLVEAVSVINHPFALGVQWHPEWNSSEYALSRILFEGFITACQHHIAEKQRL	–	2.93	–	–	–	2.64	–	10.5	–	–	–	10.6 ± 0.45

From the supplement of paper PMC11246515
